Assay results taken from patent US20050164925A1 (JOSEPH ANTHONY JAKUBOWSKI AND THURMAN DWIGHT MC KINNEY, published 2005).
Several values for one entry are separate records, joined by “and”; a condition that tells them apart may be missing. Identical values can stand only once. Where no end group is shown, it is not given here.

T1: human GLP-1 receptor (human), P43220
T1 chain: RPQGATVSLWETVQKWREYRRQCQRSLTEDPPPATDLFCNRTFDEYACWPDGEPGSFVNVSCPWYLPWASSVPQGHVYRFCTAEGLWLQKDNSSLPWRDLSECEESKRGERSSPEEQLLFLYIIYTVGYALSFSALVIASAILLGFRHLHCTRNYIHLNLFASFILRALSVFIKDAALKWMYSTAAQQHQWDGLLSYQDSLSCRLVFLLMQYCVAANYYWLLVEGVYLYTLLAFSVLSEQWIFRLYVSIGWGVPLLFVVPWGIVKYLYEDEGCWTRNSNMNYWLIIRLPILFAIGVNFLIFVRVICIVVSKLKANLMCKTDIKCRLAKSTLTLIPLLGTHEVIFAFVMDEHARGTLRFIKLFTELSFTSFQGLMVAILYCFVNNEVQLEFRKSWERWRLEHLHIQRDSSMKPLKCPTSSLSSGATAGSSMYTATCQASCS

B1: Val^8-Tyr^12-GLP-1(7-36)NH2 (peptide)
peptide: HVEGTYTSDVSSYLEGQAAKEFIAWLVKGX
modifications: C-terminal amide (Xaa at position 37 is -NH2)
B2: Val^8-Glu^30-GLP-1(7-37)OH (peptide)
peptide: HVEGTFTSDVSSYLEGQAAKEFIEWLVKGRG-OH
B3: Val^8-Tyr^12-Tyr^16-GLP-1(7-37)OH (peptide)
peptide: HVEGTYTSDYSSYLEGQAAKEFIAWLVKGRG-OH
B4: Val^8-Trp^12-Glu^22-GLP-1(7-37)OH (peptide)
peptide: HVEGTWTSDVSSYLEEQAAKEFIAWLVKGRG-OH
B5: Val^8-Tyr^12-Glu^22-GLP-1(7-37)OH (peptide)
peptide: HVEGTYTSDVSSYLEEQAAKEFIAWLVKGRG-OH
B6: Val^8-Tyr^16-Phe^19-GLP-1(7-37)OH (peptide)
peptide: HVEGTFTSDYSSFLEGQAAKEFIAWLVKGRG-OH
B7: Val^8-Tyr^16-Glu^22-GLP-1(7-37)OH (peptide)
peptide: HVEGTFTSDYSSYLEEQAAKEFIAWLVKGRG-OH
B8: Val^8-Trp^16-Glu^22-GLP-1(7-37)OH (peptide)
peptide: HVEGTFTSDWSSYLEEQAAKEFIAWLVKGRG-OH
B9: Val^8-Leu^16-Glu^22-GLP-1(7-37)OH (peptide)
peptide: HVEGTFTSDLSSYLEEQAAKEFIAWLVKGRG-OH
B10: Val^8-Ile^16-Glu^22-GLP-1(7-37)OH (peptide)
peptide: HVEGTFTSDISSYLEEQAAKEFIAWLVKGRG-OH
B11: Val^8-Phe^16-Glu^22-GLP-1(7-37)OH (peptide)
peptide: HVEGTFTSDFSSYLEEQAAKEFIAWLVKGRG-OH
B12: Val^8-Trp^18-Glu^22-GLP-1(7-37)OH (peptide)
peptide: HVEGTFTSDVSWYLEEQAAKEFIAWLVKGRG-OH
B13: Val^8-Tyr^18-Glu^22-GLP-1(7-37)OH (peptide)
peptide: HVEGTFTSDVSYYLEEQAAKEFIAWLVKGRG-OH
B14: Val^8-Ile^18-Glu^22-GLP-1(7-37)OH (peptide)
peptide: HVEGTFTSDVSIYLEEQAAKEFIAWLVKGRG-OH
B15: Val^8-Lys^18-Glu^22-GLP-1(7-37)OH (peptide)
peptide: HVEGTFTSDVSKYLEEQAAKEFIAWLVKGRG-OH
B16: Val^8-Trp^19-Glu^22-GLP-1(7-37)OH (peptide)
peptide: HVEGTFTSDVSSWLEEQAAKEFIAWLVKGRG-OH
B17: Val^8-Phe^19-Glu^22-GLP-1(7-37)OH (peptide)
peptide: HVEGTFTSDVSSFLEEQAAKEFIAWLVKGRG-OH
B18: Val^8-Phe^20-Glu^22-GLP-1(7-37)OH (peptide)
peptide: HVEGTFTSDVSSYFEEQAAKEFIAWLVKGRG-OH
B19: Val^8-Glu^22-Leu^25-GLP-1(7-37)OH (peptide)
peptide: HVEGTFTSDVSSYLEEQALKEFIAWLVKGRG-OH
B20: Val^8-Glu^22-Val^25-GLP-1(7-37)OH (peptide)
peptide: HVEGTFTSDVSSYLEEQAVKEFIAWLVKGRG-OH
B21: Val^8-Glu^22-Ala^27-GLP-1(7-37)OH (peptide)
peptide: HVEGTFTSDVSSYLEEQAAKAFIAWLVKGRG-OH
B22: Val^8-Glu^22-Ile^33-GLP-1(7-37)OH (peptide)
peptide: HVEGTFTSDVSSYLEEQAAKEFIAWLIKGRG-OH
B23: Val^8-Glu^22-His^37-GLP-1(7-37)OH (peptide)
peptide: HVEGTFTSDVSSYLEEQAAKEFIAWLVKGRH-OH
B24: Val^8-Asp^9-Ile^11-Tyr^16-Glu^22-GLP-1(7-37)OH (peptide)
peptide: HVDGIFTSDYSSYLEEQAAKEFIAWLVKGRG-OH
B25: Val^8-Tyr^16-Trp^19-Glu^22-GLP-1(7-37)OH (peptide)
peptide: HVEGTFTSDYSSWLEEQAAKEFIAWLVKGRG-OH
B26: Val^8-Trp^16-Glu^22-Val^25-Ile^33-GLP-1(7-37)OH (peptide)
peptide: HVEGTFTSDWSSYLEEQAVKEFIAWLIKGRG-OH
B27: Val^8-Trp^16-Glu^22-Ile^33-GLP-1(7-37)OH (peptide)
peptide: HVEGTFTSDWSSYLEEQAAKEFIAWLIKGRG-OH
B28: Val^8-Glu^22-Val^25-Ile^33-GLP-1(7-37)OH (peptide)
peptide: HVEGTFTSDVSSYLEEQAVKEFIAWLIKGRG-OH
B29: Val^8-Trp^16-Glu^22-Val^25-GLP-1(7-37)OH (peptide)
peptide: HVEGTFTSDWSSYLEEQAVKEFIAWLVKGRG-OH
B30: Val^8-Leu^16-GLP-1(7-37)OH (peptide)
peptide: HVEGTFTSDLSSYLEGQAAKEFIAWLVKGRG-OH
B31: Val^8-Tyr^16-GLP-1(7-37)OH (peptide)
peptide: HVEGTFTSDYSSYLEGQAAKEFIAWLVKGRG-OH
B32: Val^8-Leu^25-GLP-1(7-37)OH (peptide)
peptide: HVEGTFTSDVSSYLEGQALKEFIAWLVKGRG-OH

These molecules were tested against T2, human GLP-1 receptor (Homo sapiens, UniProt P43220) (assay: In vitro potency assay (CRE-BLAM reporter, GLP-1 receptor signaling)). Conditions: in vitro potency relative to Val^8-GLP-1(7-37)OH.
T2 construct: expressed in transfected cells; host or cells: HEK-293 Aurora CRE-BLAM cells
Assay type: cell-based
Description: The extent of the induction of cAMP levels can then be measured using a cAMP response element which drives the expression of a reporter gene such as luciferase or beta lactamase.
These HEK-293 cells have stably integrated a DNA vector having a cAMP response element (CRE) driving expression of the β-lactamase (BLAM) gene.
The day after seeding, the medium is replaced with plasma free medium.

For Val^8-Glu^22-GLP-1(7-37)OH, the “potency higher than Val^8-GLP-1(7-37)OH” value was “approximately 3 fold”.
With Exendin-4 the “potency higher than Val^8-GLP-1(7-37)OH” value was “approximately 5 fold”.

These molecules were tested against human GLP-1 receptor (human, UniProt P43220 24-463) (assay: cell-based or functional assay). Conditions: not given.

For B1, the “EC50 Relative to Val^8-GLP-1(7-37)OH” value was 1.1 relative to Val^8-GLP-1(7-37)OH.

Molecular target: T1, human GLP-1 receptor (human), P43220
Assay: cell-based or functional assay
Conditions: not given

Compared with B2, B3 is higher in EC50 Relative to Val^8-GLP-1(7-37)OH (relative to Val^8-GLP-1(7-37)OH): 0.7 for the first, 1.5 for the second.

Compared with B4, B5 is higher in EC50 Relative to Val^8-GLP-1(7-37)OH (relative to Val^8-GLP-1(7-37)OH): 1.7 for the first, 2.7 for the second.

First: B6
Second: B9
The EC50 Relative to Val^8-GLP-1(7-37)OH (relative to Val^8-GLP-1(7-37)OH) of the first is lower: 2.8 for the first, 4.3 for the second.

First: B10
Second: B11
The EC50 Relative to Val^8-GLP-1(7-37)OH (relative to Val^8-GLP-1(7-37)OH) of the first is higher: 3.3 for the first, 2.3 for the second.

Going from B14 to B15, the EC50 Relative to Val^8-GLP-1(7-37)OH (relative to Val^8-GLP-1(7-37)OH) falls from 4 to 2.5.

Compared with B16, B17 is lower in EC50 Relative to Val^8-GLP-1(7-37)OH (relative to Val^8-GLP-1(7-37)OH): 3.2 for the first, 1.5 for the second.

Compared with B18, B19 is higher in EC50 Relative to Val^8-GLP-1(7-37)OH (relative to Val^8-GLP-1(7-37)OH): 2.7 for the first, 2.8 for the second.

Compared with B21, B23 is higher in EC50 Relative to Val^8-GLP-1(7-37)OH (relative to Val^8-GLP-1(7-37)OH): 2.2 for the first, 4.7 for the second.

Going from B24 to B25, the EC50 Relative to Val^8-GLP-1(7-37)OH (relative to Val^8-GLP-1(7-37)OH) falls from 4.3 to 3.5.

Going from B26 to B27, the EC50 Relative to Val^8-GLP-1(7-37)OH (relative to Val^8-GLP-1(7-37)OH) falls from 5 to 4.1.

Going from B29 to B30, the EC50 Relative to Val^8-GLP-1(7-37)OH (relative to Val^8-GLP-1(7-37)OH) falls from 4.4 to 1.1.

First: B31
Second: B32
The EC50 Relative to Val^8-GLP-1(7-37)OH (relative to Val^8-GLP-1(7-37)OH) of the first is higher: 2.5 for the first, 0.5 for the second.

With B7 the EC50 Relative to Val^8-GLP-1(7-37)OH (relative to Val^8-GLP-1(7-37)OH) was 3.6 and 3.8.
For B8, the EC50 Relative to Val^8-GLP-1(7-37)OH (relative to Val^8-GLP-1(7-37)OH) was 4.9 and 4.6.
For B12, the EC50 Relative to Val^8-GLP-1(7-37)OH (relative to Val^8-GLP-1(7-37)OH) was 3.2 and 6.6.
B13 was tested, and the EC50 Relative to Val^8-GLP-1(7-37)OH (relative to Val^8-GLP-1(7-37)OH) was 5.1 and 5.9.
B20 was tested, and the EC50 Relative to Val^8-GLP-1(7-37)OH (relative to Val^8-GLP-1(7-37)OH) was 4.7 and 2.9.
In the case of B22, the EC50 Relative to Val^8-GLP-1(7-37)OH (relative to Val^8-GLP-1(7-37)OH) is reported as 4.7 and 3.8 and 3.4.
With B28 the EC50 Relative to Val^8-GLP-1(7-37)OH (relative to Val^8-GLP-1(7-37)OH) was 4.9 and 5.8 and 6.7.
